Among the data in patent publication US20050282743A1, “Molecular interactions in cells” (Arbor Vita Corporation, priority 2001, published 2005) are Classification and Kd values, retold here.

In test [1] the target is T1, GST-HEMBA 1003117 PDZ domain 1 (Homo sapiens (Human)), Q96JH8.
T1 chain: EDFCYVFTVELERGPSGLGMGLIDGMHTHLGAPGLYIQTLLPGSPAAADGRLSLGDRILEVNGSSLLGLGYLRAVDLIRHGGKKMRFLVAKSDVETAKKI
In words: G' assay. Also: key of the grades not given here.

In test [2] the target is GST-CARD14 PDZ domain 1 (Homo sapiens (Human)), Q9BXL6. Description: G' assay. Also: key of the grades not given here.
GST-CARD14 PDZ domain 1 (Homo sapiens (Human)), Q9BXL6, sequence (Q9BXL6 565-664): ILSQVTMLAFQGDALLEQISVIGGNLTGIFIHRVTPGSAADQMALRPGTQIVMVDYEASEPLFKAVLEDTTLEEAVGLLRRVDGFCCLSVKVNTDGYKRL
Test [3] deals with T2, GST-MPP2 PDZ domain 1 (Homo sapiens (Human)), Q14168.
T2 chain: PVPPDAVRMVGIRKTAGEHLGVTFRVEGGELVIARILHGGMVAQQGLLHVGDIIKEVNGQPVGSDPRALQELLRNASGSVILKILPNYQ
Description: G' assay. Also: key of the grades not given here.

The target of test [4] is T3, GST-GRIP 1 PDZ domain 6 (Mus musculus (Mouse)), Q925T6.
T3 chain: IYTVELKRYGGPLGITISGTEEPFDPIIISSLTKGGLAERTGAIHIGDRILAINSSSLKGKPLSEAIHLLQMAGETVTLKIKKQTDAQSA
Description: G' assay. Also: key of the grades not given here.

Test [5] concerns the target T4, GST-MUPP1 PDZ domain 9 (Homo sapiens (Human)), O75970.
T4 chain: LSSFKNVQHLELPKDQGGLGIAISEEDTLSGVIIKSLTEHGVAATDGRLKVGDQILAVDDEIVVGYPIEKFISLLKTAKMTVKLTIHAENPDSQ
Description: G' assay. Also: key of the grades not given here.

For test [6], the target named is T5, GST-MINT1 PDZ domains 1, 2, Q02410.
T5 chain: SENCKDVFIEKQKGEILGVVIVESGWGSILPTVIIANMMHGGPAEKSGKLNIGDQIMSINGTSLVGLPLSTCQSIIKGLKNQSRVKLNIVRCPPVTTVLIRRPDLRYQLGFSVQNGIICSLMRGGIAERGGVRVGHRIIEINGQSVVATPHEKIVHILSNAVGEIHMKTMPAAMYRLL
Description: G' assay. Also: key of the grades not given here.

For test [7], the target named is T6, GST-MUPP1 PDZ domain 7 (Homo sapiens (Human)), O75970.
T6 chain: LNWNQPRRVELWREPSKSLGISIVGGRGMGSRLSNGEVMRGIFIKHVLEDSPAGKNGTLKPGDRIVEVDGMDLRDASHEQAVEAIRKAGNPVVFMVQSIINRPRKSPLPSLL
In words: G' assay. Also: key of the grades not given here.

The target in test [8] is T7, GST-KIAA1719 PDZ domain 5 (Homo sapiens (Human)), Q9C0E4.
T7 chain: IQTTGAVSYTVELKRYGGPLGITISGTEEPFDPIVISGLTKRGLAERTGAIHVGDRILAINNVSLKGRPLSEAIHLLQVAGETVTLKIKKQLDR
Description: G' assay.

For test [9], the target named is T8, GST-MUPP1 PDZ domain 3 (Homo sapiens (Human)), O75970.
T8 chain: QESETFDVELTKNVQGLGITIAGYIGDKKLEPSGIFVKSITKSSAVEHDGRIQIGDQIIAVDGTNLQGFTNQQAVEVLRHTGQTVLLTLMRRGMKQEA
In words: G' assay.

Test [10] deals with T9, GST-PICK1 PDZ domain 1 (Bos taurus (Bovine)), Q2T9M1.
T9 chain: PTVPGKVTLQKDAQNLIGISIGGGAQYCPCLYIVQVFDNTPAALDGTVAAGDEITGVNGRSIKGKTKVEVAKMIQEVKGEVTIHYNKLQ
In words: G' assay.

Test [11] addresses T10, GST-AIPC PDZ domain 1 (Homo sapiens (Human)), O15018.
T10 chain: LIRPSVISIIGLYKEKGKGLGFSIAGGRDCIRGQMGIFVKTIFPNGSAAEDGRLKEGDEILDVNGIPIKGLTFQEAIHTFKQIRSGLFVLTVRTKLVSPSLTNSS
Description: G' assay.

The target of test [12] is GST-PAR3 PDZ domain 3 (Homo sapiens (Human)), Q8TEW0. In words: G' assay. Also: key of the grades not given here.
GST-PAR3 PDZ domain 3 (Homo sapiens (Human)), Q8TEW0, sequence (Q8TEW0 579-681): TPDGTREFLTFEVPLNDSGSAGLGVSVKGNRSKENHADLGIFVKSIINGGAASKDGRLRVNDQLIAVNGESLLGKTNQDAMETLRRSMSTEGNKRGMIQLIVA
Test [13] concerns the target T11, GST-KIAA0380 PDZ domain 1 (Homo sapiens (Human)), O15085.
T11 chain: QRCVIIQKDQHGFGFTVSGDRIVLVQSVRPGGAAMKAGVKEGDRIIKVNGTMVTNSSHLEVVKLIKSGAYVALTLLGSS
In words: G' assay.

Test [14] concerns the target T12, GST-INADL PDZ domain 3 (Homo sapiens (Human)), Q8NI35.
T12 chain: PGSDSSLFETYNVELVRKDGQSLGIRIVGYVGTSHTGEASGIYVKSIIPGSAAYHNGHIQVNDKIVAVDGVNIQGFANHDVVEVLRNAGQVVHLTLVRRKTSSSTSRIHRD
Description: G' assay.

In test [15] the target is T13, GST-KIAA1719 PDZ domain 6 (Homo sapiens (Human)), Q9C0E4.
T13 chain: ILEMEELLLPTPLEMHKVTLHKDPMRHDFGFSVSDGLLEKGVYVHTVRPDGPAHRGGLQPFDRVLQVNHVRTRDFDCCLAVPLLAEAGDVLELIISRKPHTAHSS
Description: G' assay.

In test [16] the target is T14, GST-ZO-1 PDZ domain 2 (Rattus norvegicus (Rat)), A0A0G2.
T14 chain: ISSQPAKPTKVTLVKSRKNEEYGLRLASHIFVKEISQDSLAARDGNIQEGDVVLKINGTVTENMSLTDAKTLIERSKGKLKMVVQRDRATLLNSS
In words: G' assay.

Test [17] has as its target T15, GST-FLJ 10324 PDZ domain 1 [GST: P08515].
T15 chain: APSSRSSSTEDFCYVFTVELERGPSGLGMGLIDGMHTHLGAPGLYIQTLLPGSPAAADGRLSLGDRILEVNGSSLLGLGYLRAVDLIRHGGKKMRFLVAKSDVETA
Description: G' assay.

The target of test [18] is GST-PAR3 PDZ domain 3 (Homo sapiens (Human)), Q8TEW0. Description: G assay titration, PDZ 1 ug/ml.
Test [19] deals with T3, GST-GRIP 1 PDZ domain 6 (Mus musculus …). Description: G assay titration, PDZ 5 ug/ml.
The target of test [20] is T4, GST-MUPP1 PDZ domain 9 (Homo sapiens …). In words: G assay titration, PDZ 5 ug/ml.
The target in test [21] is T5, GST-MINT1 PDZ domains 1, 2, Q02410. Description: G assay titration, PDZ 5 ug/ml.
For test [22], the target named is T6, GST-MUPP1 PDZ domain 7 (Homo sapiens …). Description: G assay titration, PDZ 5 ug/ml.
For test [23], the target named is T7, GST-KIAA1719 PDZ domain 5 (Homo sapiens …). In words: G assay titration, PDZ 5 ug/ml.
Test [24] deals with T8, GST-MUPP1 PDZ domain 3 (Homo sapiens …). Description: G assay titration, PDZ 5 ug/ml.
Test [25] concerns the target T9, GST-PICK1 PDZ domain 1 (Bos taurus …). In words: G assay titration, PDZ 5 ug/ml.
In test [26] the target is T10, GST-AIPC PDZ domain 1 (Homo sapiens …). Description: G assay titration, PDZ 5 ug/ml.
Test [27] has as its target T12, GST-INADL PDZ domain 3 (Homo sapiens …). In words: G assay titration, PDZ 5 ug/ml.
Test [28] addresses T13, GST-KIAA1719 PDZ domain 6 (Homo sapiens …). Description: G assay titration, PDZ 5 ug/ml.
For test [29], the target named is T14, GST-ZO-1 PDZ domain 2 (Rattus …). In words: G assay titration, PDZ 5 ug/ml.
The target of test [30] is T15, GST-FLJ 10324 PDZ domain 1 [GST: P08515]. Description: G assay titration, PDZ 5 ug/ml.
Test [31] concerns the target T16, GST-LU-1 PDZ domain 1 (Homo sapiens (Human)), Q76G19.
T16 chain: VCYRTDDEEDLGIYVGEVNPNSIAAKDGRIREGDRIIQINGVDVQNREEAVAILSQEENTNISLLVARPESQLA
Description: G' assay.

Test [32] has as its target T17, GST-DVL2 PDZ domain 1 (Homo sapiens (Human)), O14641.
T17 chain: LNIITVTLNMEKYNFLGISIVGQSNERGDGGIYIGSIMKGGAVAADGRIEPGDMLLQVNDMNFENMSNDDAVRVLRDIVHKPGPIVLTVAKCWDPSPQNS
In words: G' assay.

Test [33] addresses T18, GST-MUPP1 PDZ domain 4 (Homo sapiens (Human)), O75970.
T18 chain: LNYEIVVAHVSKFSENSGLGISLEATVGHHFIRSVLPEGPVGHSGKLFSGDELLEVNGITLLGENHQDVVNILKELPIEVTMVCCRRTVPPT
Description: G' assay.

The target of test [34] is T19, GST-KIAA0973 PDZ domain 1 (Homo sapiens (Human)), Q9Y2H9.
T19 chain: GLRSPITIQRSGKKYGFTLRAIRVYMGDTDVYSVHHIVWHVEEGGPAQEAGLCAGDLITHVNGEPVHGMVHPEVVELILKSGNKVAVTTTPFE
Description: G' assay.

The target in test [35] is T20, GST-GRIP 1 PDZ domain 5 (Homo sapiens (Human)), Q9Y3R0.
T20 chain: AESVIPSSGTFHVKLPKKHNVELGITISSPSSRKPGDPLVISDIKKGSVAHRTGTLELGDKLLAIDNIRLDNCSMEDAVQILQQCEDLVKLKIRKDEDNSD
In words: G' assay.

Test [36] concerns the target T21, GST-APXL-1 PDZ domain 1 (Homo sapiens (Human)), Q13796.
T21 chain: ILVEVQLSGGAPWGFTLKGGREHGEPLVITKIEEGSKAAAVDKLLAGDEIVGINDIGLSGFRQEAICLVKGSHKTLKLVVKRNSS
Description: G' assay.

Test [37] deals with T22, GST-KIAA1719 PDZ domain 3 (Homo sapiens (Human)), Q9C0E4.
T22 chain: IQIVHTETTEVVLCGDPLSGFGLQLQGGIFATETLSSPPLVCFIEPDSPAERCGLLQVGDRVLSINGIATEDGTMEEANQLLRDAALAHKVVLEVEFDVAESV
In words: G' assay.

For test [38], the target named is T23, GST-MINT1 PDZ domain 2 (Mus musculus (Mouse)), B2RUJ5.
T23 chain: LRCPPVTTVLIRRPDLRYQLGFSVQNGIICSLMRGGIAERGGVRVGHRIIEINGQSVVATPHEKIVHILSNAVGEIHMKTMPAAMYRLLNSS
In words: G' assay.

Test [39] deals with T24, GST-PTPL1 PDZ domain 5 (Homo sapiens (Human)), Q12923.
T24 chain: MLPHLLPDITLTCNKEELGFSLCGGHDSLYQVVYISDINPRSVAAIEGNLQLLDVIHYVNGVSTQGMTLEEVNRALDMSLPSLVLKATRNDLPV
Description: G' assay.

For LAVLAYSITLVMLWSIWQYA (modifications not checked) [Serotonin receptor 3a], the Classification in test [1], in test [2] and in [3] was 2 A450 class throughout.

With HHLVAQRDIRQFQLQHWLAI (modifications not checked) [noradrenaline transporter], the Classification in test [4] is 2 A450 class; in [5], 3 A450 class; in [6], 3 A450 class; in test [7], 3 A450 class; in test [8], 2 A450 class; in test [9], 4 A450 class. Besides, the Classification in test [10] was determined as 1 A450 class; in test [11], 2 A450 class; in [12] it was 4 A450 class; in test [13], 1 A450 class; in test [14] it was 3 A450 class; in [15] it was 2 A450 class. Further, the Classification in test [16] was determined as 2 A450 class; in test [17], 3 A450 class. Further, the Kd turned out to be 600 nM in test [18]; 500 nM in test [19]; 700 nM in [20]; 500 nM in [21]; 800 nM in test [22]; 1000 nM in test [23]. For the same molecule, the Kd in [24] turned out to be 400 nM; in test [25], 1000 nM; in test [26] it was 600 nM; in [27], 600 nM; in test [28], 800 nM; in [29], 400 nM. The same molecule came in with a Kd in [30] of 600 nM.

With DFRPSFKHILFRRARRGFRQ (modifications not checked) [alpha-2C Adrenergic receptor], the Classification in test [31] is 4 A450 class; in test [2] it was 5 A450 class; in [32], 3 A450 class; in test [33] it was 3 A450 class; in test [34], 3 A450 class; in test [35], 1 A450 class. The Classification came to 3 A450 class in [36], 5 A450 class in test [37], 3 A450 class in test [38] and 3 A450 class in test [39].
